According to patent US20240139329A1 (CALIFORNIA INSTITUTE OF TECHNOLOGY, published 2024):

T1: Mouse SCA1 (LY6A), on cells (mouse, UniProt P05533 27-112)
T1 construct: whole, on cells; also called mouse LY6A
T1 sequence: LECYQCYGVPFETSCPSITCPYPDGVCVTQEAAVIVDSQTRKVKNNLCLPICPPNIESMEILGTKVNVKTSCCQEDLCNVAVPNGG

T2: human LRP6 extracellular domain (AA 20-1368) tagged with Fc (human IgG1) (human, UniProt O75581 20-1368)
T2 construct: also called human LRP6-Fc; complete human LRP6 extracellular domain; not shown: human IgG1 Fc
T2 sequence: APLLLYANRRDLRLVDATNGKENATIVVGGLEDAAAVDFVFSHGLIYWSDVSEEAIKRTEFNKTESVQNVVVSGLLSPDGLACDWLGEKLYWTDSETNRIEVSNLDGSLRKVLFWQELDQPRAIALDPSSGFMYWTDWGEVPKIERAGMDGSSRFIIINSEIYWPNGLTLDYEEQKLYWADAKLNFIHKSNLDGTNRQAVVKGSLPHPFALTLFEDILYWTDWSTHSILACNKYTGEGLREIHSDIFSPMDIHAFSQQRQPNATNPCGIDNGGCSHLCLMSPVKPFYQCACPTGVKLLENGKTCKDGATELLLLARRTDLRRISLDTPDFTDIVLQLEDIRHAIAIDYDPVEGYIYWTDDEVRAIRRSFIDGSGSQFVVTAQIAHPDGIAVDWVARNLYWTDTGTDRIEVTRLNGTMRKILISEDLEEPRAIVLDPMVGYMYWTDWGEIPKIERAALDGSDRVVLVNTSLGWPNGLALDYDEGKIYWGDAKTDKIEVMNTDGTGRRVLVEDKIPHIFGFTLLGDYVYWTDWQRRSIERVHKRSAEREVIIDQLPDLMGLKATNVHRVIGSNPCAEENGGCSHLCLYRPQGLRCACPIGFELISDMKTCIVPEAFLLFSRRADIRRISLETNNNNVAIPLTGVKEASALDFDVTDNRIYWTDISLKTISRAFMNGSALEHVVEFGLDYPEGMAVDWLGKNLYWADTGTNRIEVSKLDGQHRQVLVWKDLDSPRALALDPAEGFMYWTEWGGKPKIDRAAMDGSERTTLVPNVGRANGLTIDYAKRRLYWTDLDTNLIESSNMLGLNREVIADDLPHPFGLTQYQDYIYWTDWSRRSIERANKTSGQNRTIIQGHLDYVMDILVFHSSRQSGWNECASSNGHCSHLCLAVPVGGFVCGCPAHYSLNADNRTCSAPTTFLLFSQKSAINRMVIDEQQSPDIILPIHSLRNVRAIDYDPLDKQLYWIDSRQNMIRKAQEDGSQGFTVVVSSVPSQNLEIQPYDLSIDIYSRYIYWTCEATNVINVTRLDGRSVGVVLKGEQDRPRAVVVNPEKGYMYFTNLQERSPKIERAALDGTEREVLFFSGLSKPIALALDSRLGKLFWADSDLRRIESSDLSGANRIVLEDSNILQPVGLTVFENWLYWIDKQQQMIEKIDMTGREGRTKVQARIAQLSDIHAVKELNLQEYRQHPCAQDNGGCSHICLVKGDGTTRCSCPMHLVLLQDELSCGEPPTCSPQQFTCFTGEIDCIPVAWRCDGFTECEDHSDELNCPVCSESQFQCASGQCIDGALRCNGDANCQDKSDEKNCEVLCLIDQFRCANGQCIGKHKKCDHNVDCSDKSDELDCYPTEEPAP

T3: mouse LRP6 extracellular domain (AA20-1366) tagged with 6×His tag (mouse, UniProt O88572 20-1366)
T3 construct: also called full length extracellular domain of mouse LRP6
T3 sequence: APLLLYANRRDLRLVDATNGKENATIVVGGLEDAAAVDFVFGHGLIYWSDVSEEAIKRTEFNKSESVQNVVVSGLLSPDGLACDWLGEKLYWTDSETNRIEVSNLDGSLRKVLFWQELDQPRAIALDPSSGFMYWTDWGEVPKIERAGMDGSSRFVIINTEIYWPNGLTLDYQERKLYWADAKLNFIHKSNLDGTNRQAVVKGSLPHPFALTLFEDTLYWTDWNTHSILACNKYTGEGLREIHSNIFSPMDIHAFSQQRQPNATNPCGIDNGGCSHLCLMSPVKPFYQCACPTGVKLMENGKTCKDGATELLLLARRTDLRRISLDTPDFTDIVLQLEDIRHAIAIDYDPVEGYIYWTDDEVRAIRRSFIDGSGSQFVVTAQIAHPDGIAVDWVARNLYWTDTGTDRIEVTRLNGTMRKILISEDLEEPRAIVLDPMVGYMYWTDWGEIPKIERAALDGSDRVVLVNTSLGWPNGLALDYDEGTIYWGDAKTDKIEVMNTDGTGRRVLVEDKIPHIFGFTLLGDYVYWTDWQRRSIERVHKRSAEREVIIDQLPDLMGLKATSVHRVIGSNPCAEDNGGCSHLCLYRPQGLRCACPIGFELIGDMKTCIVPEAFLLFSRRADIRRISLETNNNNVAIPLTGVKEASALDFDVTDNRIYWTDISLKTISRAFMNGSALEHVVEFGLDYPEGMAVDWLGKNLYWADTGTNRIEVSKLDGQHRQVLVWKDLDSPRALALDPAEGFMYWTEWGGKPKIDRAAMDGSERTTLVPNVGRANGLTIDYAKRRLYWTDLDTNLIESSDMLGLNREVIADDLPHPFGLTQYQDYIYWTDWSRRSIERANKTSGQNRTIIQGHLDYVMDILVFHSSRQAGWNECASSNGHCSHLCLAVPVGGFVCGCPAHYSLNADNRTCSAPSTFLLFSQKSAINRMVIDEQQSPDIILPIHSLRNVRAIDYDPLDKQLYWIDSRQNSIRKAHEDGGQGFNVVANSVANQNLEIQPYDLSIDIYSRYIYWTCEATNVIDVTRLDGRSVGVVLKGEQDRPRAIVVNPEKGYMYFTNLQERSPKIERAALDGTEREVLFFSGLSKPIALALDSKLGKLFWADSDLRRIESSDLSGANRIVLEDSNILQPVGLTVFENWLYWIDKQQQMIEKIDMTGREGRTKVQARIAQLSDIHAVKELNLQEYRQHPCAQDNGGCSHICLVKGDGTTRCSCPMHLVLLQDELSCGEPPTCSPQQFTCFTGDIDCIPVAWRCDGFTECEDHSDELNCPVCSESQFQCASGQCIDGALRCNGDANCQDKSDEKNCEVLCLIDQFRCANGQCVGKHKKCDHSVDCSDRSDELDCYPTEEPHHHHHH


Legend:
[1] = biological target: T4, human pancreatic secretory granule membrane major glycoprotein GP2 (GP2), on cells (human, UniProt P55259 29-512); experiment: cell microarray screen hit (membrane)
T4 construct: also called glycoprotein 2; hGP2
Procedure: After these controls, the six-capsid pool was tested in a full screen of approximately 6400 proteins, including 6000 human plasma membrane proteins and secreted and cell surface-tethered proteins, as well as approximately 400 heterodimers. […] To assign these hits to specific capsids, follow-up deconvolution screens were performed with each individual capsid from the pool (FIG. 12E). DNA oligos for the 22 identified hits, as well as the positive control CD86, were affixed in duplicate locations to new slides. A negative control condition with no AAV analyte and a positive control condition with CTLA4-Fc (CD86 binder) were also included.

[2] = biological target: T1, Mouse SCA1 (LY6A), on cells; experiment: cell microarray, individual capsids, anti-AAV9 detection
Procedure: To enable higher-throughput screening, the six capsids were tested as a pool. Pooled testing required additional dosage optimizing, first for the individual and then for the collective background binding levels of the included capsids (Table 5).

[3] = biological target: T2, human LRP6 extracellular domain (AA …); experiment: validated interaction (cell culture potency assay and/or SPR)
[4] = biological target: T3, mouse LRP6 extracellular domain …; experiment: pull-down, His-tagged bait on Ni-NTA, AAV prey, Western blot (FIG. 21)

T4 sequence (P55259 29-512 limits assumed): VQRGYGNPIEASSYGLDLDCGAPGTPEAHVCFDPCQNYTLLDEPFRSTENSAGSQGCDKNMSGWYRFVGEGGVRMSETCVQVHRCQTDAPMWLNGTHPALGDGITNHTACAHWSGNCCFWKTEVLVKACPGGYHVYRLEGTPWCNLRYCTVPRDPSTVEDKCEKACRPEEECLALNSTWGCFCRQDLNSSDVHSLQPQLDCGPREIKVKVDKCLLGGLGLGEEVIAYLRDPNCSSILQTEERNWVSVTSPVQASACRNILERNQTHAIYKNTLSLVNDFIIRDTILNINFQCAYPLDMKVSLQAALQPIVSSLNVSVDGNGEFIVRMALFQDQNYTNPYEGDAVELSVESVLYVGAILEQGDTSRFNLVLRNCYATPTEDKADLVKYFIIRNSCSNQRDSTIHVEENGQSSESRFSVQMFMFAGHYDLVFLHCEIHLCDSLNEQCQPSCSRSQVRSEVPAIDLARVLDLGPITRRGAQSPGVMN

| Binder | binding result [1] | binding result [2] | binding result [3] | binding result [4] |
| --- | --- | --- | --- | --- |
| AAV9-X1.1 (other, also called AAV-X1.1; X1B10) MAADGYLPDWLEDNLSEGIREWWALKPGAPQPKANQQHQDNARGLVLPGYKYLGPGNGLDKGEPVNAADAAALEHDKAYDQQLKAGDNPYLKYNHADAEFQERLKEDTSFGGNLGRAVFQAKKRLLEPLGLVEEAAKTAPGKKRPVEQSPQEPDSSAGIGKSGAQPAKKRLNFGQTGDTESVPDPQPIGEPPAAPSGVGSLTMASGGGAPVADNNEGADGVGSSSGNWHCDSQWLGDRVITTSTRTWALPTYNNHLYKQISNSTSGGSSNDNAYFGYSTPWGYFDFNRFHCHFSPRDWQRLINNNWGFRPKRLNFKLFNIQVKEVTDNNGVKTIANNLTSTVQVFTDSDYQLPYVLGSAHEGCLPPFPADVFMIPQYGYLTLNDGSQAVGRSSFYCLEYFPSQMLRTGNNFQFSYEFENVPFHSSYAHSQSLDRLMNPLIDQYLYYLSRTIDGAATKNQTLKFSVAGPSNMAVQGRNYIPGPSYRQQRVSTTVTQNNNSEFAWPGASSWALNGRNSLMNPGPAMASHKEGEDRFFPLSGSLIFGKQGTGRDNVDADKVMITNEEEIKTTNPVATESYGQVATNHQSAQGNNTRSVAQAQTGWVQNQGILPGMVWQDRDVYLQGPIWAKIPHTDGNFHPSPLMGGFGMKHPPPQILIKNTPVPADPPTAFNKDKLNSFITQYSTGQVSVEIEWELQKENSKRWNPEIQYTSNYYKSNNVEFAVNTEGVYSEPRPIGTRYLTRNL | binds | no binding | binds | binds |
| AAV.CAP-Mac (other, also called CAP-C1) MAADGYLPDWLEDNLSEGIREWWALKPGAPQPKANQQHQDNARGLVLPGYKYLGPGNGLDKGEPVNAADAAALEHDKAYDQQLKAGDNPYLKYNHADAEFQERLKEDTSFGGNLGRAVFQAKKRLLEPLGLVEEAAKTAPGKKRPVEQSPQEPDSSAGIGKSGAQPAKKRLNFGQTGDTESVPDPQPIGEPPAAPSGVGSLTMASGGGAPVADNNEGADGVGSSSGNWHCDSQWLGDRVITTSTRTWALPTYNNHLYKQISNSTSGGSSNDNAYFGYSTPWGYFDFNRFHCHFSPRDWQRLINNNWGFRPKRLNFKLFNIQVKEVTDNNGVKTIANNLTSTVQVFTDSDYQLPYVLGSAHEGCLPPFPADVFMIPQYGYLTLNDGSQAVGRSSFYCLEYFPSQMLRTGNNFQFSYEFENVPFHSSYAHSQSLDRLMNPLIDQYLYYLSRTINGSGQNQQTLKFSVAGPSNMAVQGRNYIPGPSYRQQRVSTTVTQNNNSEFAWPGASSWALNGRNSLMNPGPAMASHKEGEDRFFPLSGSLIFGKQGTGRDNVDADKVMITNEEEIKTTNPVATESYGQVATNHQSAQLNTTKPIAQAQTGWVQNQGILPGMVWQDRDVYLQGPIWAKIPHTDGNFHPSPLMGGFGMKHPPPQILIKNTPVPADPPTAFNKDKLNSFITQYSTGQVSVEIEWELQKENSKRWNPEIQYTSNYYKSNNVEFAVNTEGVYSEPRPIGTRYLTRNL | binds | no binding | binds | binds |
